This note sets out measurements from patent US10131702B2, “Glucagon-GLP-1-GIP triple agonist compounds” (priority 2013, dated 2018).

Where two headings read alike, the source gives them in different places.

Common to all, as to assay: cell-based or functional assay
The target of assay [1] is T1, human GIP receptor (human, UniProt P48546 22-466).
T1 sequence: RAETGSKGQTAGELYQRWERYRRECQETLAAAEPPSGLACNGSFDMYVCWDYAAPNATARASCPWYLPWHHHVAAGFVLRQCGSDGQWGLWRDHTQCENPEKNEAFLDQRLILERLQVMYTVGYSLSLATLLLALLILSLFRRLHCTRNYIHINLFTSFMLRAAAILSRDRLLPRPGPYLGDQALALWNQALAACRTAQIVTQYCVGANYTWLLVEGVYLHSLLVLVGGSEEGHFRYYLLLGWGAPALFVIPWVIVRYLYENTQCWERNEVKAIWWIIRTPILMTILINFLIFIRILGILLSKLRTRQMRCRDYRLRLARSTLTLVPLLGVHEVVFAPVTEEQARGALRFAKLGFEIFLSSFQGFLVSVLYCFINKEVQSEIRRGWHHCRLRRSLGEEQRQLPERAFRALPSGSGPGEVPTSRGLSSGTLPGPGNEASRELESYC

In assay [2] the target is T2, human glucagon-like peptide 1 receptor (human, UniProt P43220 24-463).
For assay [3], the target named is T3, human glucagon receptor (human, UniProt P47871 26-477).
T3 sequence (P47871 26-477): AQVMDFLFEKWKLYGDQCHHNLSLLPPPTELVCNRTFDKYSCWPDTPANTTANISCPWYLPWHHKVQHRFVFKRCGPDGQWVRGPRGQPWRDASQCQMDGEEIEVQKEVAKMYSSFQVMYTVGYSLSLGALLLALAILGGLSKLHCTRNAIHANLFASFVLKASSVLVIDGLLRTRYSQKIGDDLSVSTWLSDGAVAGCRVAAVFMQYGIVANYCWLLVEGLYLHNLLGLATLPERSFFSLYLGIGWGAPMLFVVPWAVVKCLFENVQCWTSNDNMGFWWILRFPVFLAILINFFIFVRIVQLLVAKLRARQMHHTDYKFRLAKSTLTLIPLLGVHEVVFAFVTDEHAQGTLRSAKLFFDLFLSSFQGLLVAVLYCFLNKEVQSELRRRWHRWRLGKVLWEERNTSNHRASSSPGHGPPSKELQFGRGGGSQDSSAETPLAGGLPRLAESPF
Assay [4] addresses T1, human GIP receptor. This is another data set of the same source.
For assay [5], the target named is T2, human glucagon-like peptide 1 receptor. This is another data set of the same source.
Assay [6] has as its target T3, human glucagon receptor. This is another data set of the same source.

B1: Compound 5 (peptide)
peptide: YAQGTFTSDYSIYLDSKAAHDFVEWLLSA
HELM: PEPTIDE1{Y.[Aib].Q.G.T.F.T.S.D.Y.S.I.Y.L.D.S.K.A.A.H.D.F.V.E.W.L.L.S.A.[am]}$$$$V2.0
SMILES: CC[C@H](C)[C@H](NC(=O)[C@H](CO)NC(=O)[C@H](Cc1ccc(O)cc1)NC(=O)[C@H](CC(=O)O)NC(=O)[C@H](CO)NC(=O)[C@@H](NC(=O)[C@H](Cc1ccccc1)NC(=O)[C@@H](NC(=O)CNC(=O)[C@H](CCC(N)=O)NC(=O)C(C)(C)NC(=O)[C@@H](N)Cc1ccc(O)cc1)[C@@H](C)O)[C@@H](C)O)C(=O)N[C@@H](Cc1ccc(O)cc1)C(=O)N[C@@H](CC(C)C)C(=O)N[C@@H](CC(=O)O)C(=O)N[C@@H](CO)C(=O)N[C@@H](CCCCN)C(=O)N[C@@H](C)C(=O)N[C@@H](C)C(=O)N[C@@H](Cc1c[nH]cn1)C(=O)N[C@@H](CC(=O)O)C(=O)N[C@@H](Cc1ccccc1)C(=O)N[C@H](C(=O)N[C@@H](CCC(=O)O)C(=O)N[C@@H](Cc1c[nH]c2ccccc12)C(=O)N[C@@H](CC(C)C)C(=O)N[C@@H](CC(C)C)C(=O)N[C@@H](CO)C(=O)N[C@@H](C)C(N)=O)C(C)C
With B1, the “EC50 (cAMP induction)” value is 170 pM in assay [1]; 9.2 pM in assay [2]; 65 pM in assay [3]; 9 pM in assay [4]; 65 pM in assay [5]; 65 pM in assay [6].

B2: Compound 7 (peptide)
peptide: YAQGTFTSDYSKALDSKAAHDFVEWLLSA
HELM: PEPTIDE1{Y.[Aib].Q.G.T.F.T.S.D.Y.S.K.A.L.D.S.K.A.A.H.D.F.V.E.W.L.L.S.A.[am]}$$$$V2.0
SMILES: CC(C)C[C@H](NC(=O)[C@H](C)NC(=O)[C@H](CCCCN)NC(=O)[C@H](CO)NC(=O)[C@H](Cc1ccc(O)cc1)NC(=O)[C@H](CC(=O)O)NC(=O)[C@H](CO)NC(=O)[C@@H](NC(=O)[C@H](Cc1ccccc1)NC(=O)[C@@H](NC(=O)CNC(=O)[C@H](CCC(N)=O)NC(=O)C(C)(C)NC(=O)[C@@H](N)Cc1ccc(O)cc1)[C@@H](C)O)[C@@H](C)O)C(=O)N[C@@H](CC(=O)O)C(=O)N[C@@H](CO)C(=O)N[C@@H](CCCCN)C(=O)N[C@@H](C)C(=O)N[C@@H](C)C(=O)N[C@@H](Cc1c[nH]cn1)C(=O)N[C@@H](CC(=O)O)C(=O)N[C@@H](Cc1ccccc1)C(=O)N[C@H](C(=O)N[C@@H](CCC(=O)O)C(=O)N[C@@H](Cc1c[nH]c2ccccc12)C(=O)N[C@@H](CC(C)C)C(=O)N[C@@H](CC(C)C)C(=O)N[C@@H](CO)C(=O)N[C@@H](C)C(N)=O)C(C)C
B2: the “EC50 (cAMP induction)” value worked out at 420 pM in assay [1]; 31 pM in assay [2]; 86 pM in assay [3]; 31 pM in assay [4]; 86 pM in assay [5]; 86 pM in assay [6].

B3: Compound 9 (peptide)
peptide: YAQGTFTSDYSIYLDEKAAHDFVEWLLSA
HELM: PEPTIDE1{Y.[Aib].Q.G.T.F.T.S.D.Y.S.I.Y.L.D.E.K.A.A.H.D.F.V.E.W.L.L.S.A.[am]}$$$$V2.0
SMILES: CC[C@H](C)[C@H](NC(=O)[C@H](CO)NC(=O)[C@H](Cc1ccc(O)cc1)NC(=O)[C@H](CC(=O)O)NC(=O)[C@H](CO)NC(=O)[C@@H](NC(=O)[C@H](Cc1ccccc1)NC(=O)[C@@H](NC(=O)CNC(=O)[C@H](CCC(N)=O)NC(=O)C(C)(C)NC(=O)[C@@H](N)Cc1ccc(O)cc1)[C@@H](C)O)[C@@H](C)O)C(=O)N[C@@H](Cc1ccc(O)cc1)C(=O)N[C@@H](CC(C)C)C(=O)N[C@@H](CC(=O)O)C(=O)N[C@@H](CCC(=O)O)C(=O)N[C@@H](CCCCN)C(=O)N[C@@H](C)C(=O)N[C@@H](C)C(=O)N[C@@H](Cc1c[nH]cn1)C(=O)N[C@@H](CC(=O)O)C(=O)N[C@@H](Cc1ccccc1)C(=O)N[C@H](C(=O)N[C@@H](CCC(=O)O)C(=O)N[C@@H](Cc1c[nH]c2ccccc12)C(=O)N[C@@H](CC(C)C)C(=O)N[C@@H](CC(C)C)C(=O)N[C@@H](CO)C(=O)N[C@@H](C)C(N)=O)C(C)C
As for B3, the “EC50 (cAMP induction)” value in assay [1] was 56 pM; in assay [2], 5.5 pM; in assay [3], 97 pM; in assay [4] it was 6 pM; in assay [5], 97 pM; in assay [6] it was 97 pM.

B4: Compound 6 (peptide)
peptide: YAQGTFTSDYSKYLDSKAARDFVEWLLSA
HELM: PEPTIDE1{Y.[Aib].Q.G.T.F.T.S.D.Y.S.K.Y.L.D.S.K.A.A.R.D.F.V.E.W.L.L.S.A.[am]}$$$$V2.0
SMILES: CC(C)C[C@H](NC(=O)[C@H](CC(C)C)NC(=O)[C@H](Cc1c[nH]c2ccccc12)NC(=O)[C@H](CCC(=O)O)NC(=O)[C@@H](NC(=O)[C@H](Cc1ccccc1)NC(=O)[C@H](CC(=O)O)NC(=O)[C@H](CCCNC(=N)N)NC(=O)[C@H](C)NC(=O)[C@H](C)NC(=O)[C@H](CCCCN)NC(=O)[C@H](CO)NC(=O)[C@H](CC(=O)O)NC(=O)[C@H](CC(C)C)NC(=O)[C@H](Cc1ccc(O)cc1)NC(=O)[C@H](CCCCN)NC(=O)[C@H](CO)NC(=O)[C@H](Cc1ccc(O)cc1)NC(=O)[C@H](CC(=O)O)NC(=O)[C@H](CO)NC(=O)[C@@H](NC(=O)[C@H](Cc1ccccc1)NC(=O)[C@@H](NC(=O)CNC(=O)[C@H](CCC(N)=O)NC(=O)C(C)(C)NC(=O)[C@@H](N)Cc1ccc(O)cc1)[C@@H](C)O)[C@@H](C)O)C(C)C)C(=O)N[C@@H](CO)C(=O)N[C@@H](C)C(N)=O
In the case of B4, the “EC50 (cAMP induction)” value in assay [1] stood at 340 pM; in assay [2], 9.5 pM; in assay [3], 18 pM; in assay [4], 10 pM; in assay [5], 18 pM; in assay [6], 18 pM.

B5: Compound 10 (peptide)
peptide: YAQGTFTSDYSIYLDSKAAKDFVEWLLSA
HELM: PEPTIDE1{Y.[Aib].Q.G.T.F.T.S.D.Y.S.I.Y.L.D.S.K.A.A.K.D.F.V.E.W.L.L.S.A.[am]}$$$$V2.0
SMILES: CC[C@H](C)[C@H](NC(=O)[C@H](CO)NC(=O)[C@H](Cc1ccc(O)cc1)NC(=O)[C@H](CC(=O)O)NC(=O)[C@H](CO)NC(=O)[C@@H](NC(=O)[C@H](Cc1ccccc1)NC(=O)[C@@H](NC(=O)CNC(=O)[C@H](CCC(N)=O)NC(=O)C(C)(C)NC(=O)[C@@H](N)Cc1ccc(O)cc1)[C@@H](C)O)[C@@H](C)O)C(=O)N[C@@H](Cc1ccc(O)cc1)C(=O)N[C@@H](CC(C)C)C(=O)N[C@@H](CC(=O)O)C(=O)N[C@@H](CO)C(=O)N[C@@H](CCCCN)C(=O)N[C@@H](C)C(=O)N[C@@H](C)C(=O)N[C@@H](CCCCN)C(=O)N[C@@H](CC(=O)O)C(=O)N[C@@H](Cc1ccccc1)C(=O)N[C@H](C(=O)N[C@@H](CCC(=O)O)C(=O)N[C@@H](Cc1c[nH]c2ccccc12)C(=O)N[C@@H](CC(C)C)C(=O)N[C@@H](CC(C)C)C(=O)N[C@@H](CO)C(=O)N[C@@H](C)C(N)=O)C(C)C
With B5, the “EC50 (cAMP induction)” value amounted to 240 pM in assay [1]; 12 pM in assay [2]; 100 pM in assay [3]; 12 pM in assay [4]; 100 pM in assay [5]; 100 pM in assay [6].

B6: Compound 8 (peptide)
peptide: YAQGTFTSDYSKYLESKAAHDFVEWLLSA
HELM: PEPTIDE1{Y.[Aib].Q.G.T.F.T.S.D.Y.S.K.Y.L.E.S.K.A.A.H.D.F.V.E.W.L.L.S.A.[am]}$$$$V2.0
SMILES: CC(C)C[C@H](NC(=O)[C@H](CC(C)C)NC(=O)[C@H](Cc1c[nH]c2ccccc12)NC(=O)[C@H](CCC(=O)O)NC(=O)[C@@H](NC(=O)[C@H](Cc1ccccc1)NC(=O)[C@H](CC(=O)O)NC(=O)[C@H](Cc1c[nH]cn1)NC(=O)[C@H](C)NC(=O)[C@H](C)NC(=O)[C@H](CCCCN)NC(=O)[C@H](CO)NC(=O)[C@H](CCC(=O)O)NC(=O)[C@H](CC(C)C)NC(=O)[C@H](Cc1ccc(O)cc1)NC(=O)[C@H](CCCCN)NC(=O)[C@H](CO)NC(=O)[C@H](Cc1ccc(O)cc1)NC(=O)[C@H](CC(=O)O)NC(=O)[C@H](CO)NC(=O)[C@@H](NC(=O)[C@H](Cc1ccccc1)NC(=O)[C@@H](NC(=O)CNC(=O)[C@H](CCC(N)=O)NC(=O)C(C)(C)NC(=O)[C@@H](N)Cc1ccc(O)cc1)[C@@H](C)O)[C@@H](C)O)C(C)C)C(=O)N[C@@H](CO)C(=O)N[C@@H](C)C(N)=O
Consider B6, for which the “EC50 (cAMP induction)” value in assay [1] came out at 200 pM; in assay [2], 15 pM; in assay [3], 42 pM; in assay [4], 15 pM; in assay [5] it was 42 pM; in assay [6], 42 pM.
